Experiments:
human IL-13 [1] = target: human IL-13 (human); assay: BIAcore, IgG coupled to the chip, IL-13 in flow
human IL-13 [2] = target: human IL-13 (human); assay: cell-based or functional assay
[3] = target: native human IL-13 released from HDLM-2 cells (human); assay: cell-based or functional assay
human IL-13 [4] = target: human IL-13 (human); assay: BIAcore, IgG4 coupled to the chip, IL-13 in flow
murine IL-13 = target: T1, murine IL-13 (murine); assay: BIAcore, IgG4 coupled to the chip, IL-13 in flow
T1 chain: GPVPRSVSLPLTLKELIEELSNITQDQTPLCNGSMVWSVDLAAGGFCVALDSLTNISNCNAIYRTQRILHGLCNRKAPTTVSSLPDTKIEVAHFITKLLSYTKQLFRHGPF

human IL-13 [5] = target: human IL-13 (human); assay: cell-based or functional assay; remark: listed apart in the source

Sequence of human IL-13 (human) (chain, as listed by the source): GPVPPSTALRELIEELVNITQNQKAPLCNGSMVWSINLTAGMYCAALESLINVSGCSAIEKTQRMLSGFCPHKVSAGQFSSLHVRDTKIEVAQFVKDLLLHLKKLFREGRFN
Sequence of native human IL-13 released from HDLM-2 cells (human) (chain, as listed by the source): as above

B1: BAK278D6 IgG (antibody, V domains shown)
VH: EVQLVQSGAEVKKPGASVKVSCKASGYTFRNYGLSWVRQAPGQGLEWMGWISANNGDTNYGQEFQGRITMTTETSTNTAHMELRSLRSDDTAVYYCVRDSSSNWARWFFDLWGKGTMVTVSS
VL: SYVLTQPPSVSVAPGQTARIPCGGNNIGSKLVHWYQQKPGQAPVLVVYDDGDRPSGIPERFSGSNSGNTATLTISRIDAGDEADYYCQVWDTGSDPVVFGGGTKLTVL
- Kd (human IL-13 [1]): 13.5 nM
- koff (human IL-13 [1]): 0.00741 s⁻¹
- kon (human IL-13 [1]): 549000 M⁻¹ s⁻¹

B2: BAK615E3 scFv (scFv, V domains shown)
VH: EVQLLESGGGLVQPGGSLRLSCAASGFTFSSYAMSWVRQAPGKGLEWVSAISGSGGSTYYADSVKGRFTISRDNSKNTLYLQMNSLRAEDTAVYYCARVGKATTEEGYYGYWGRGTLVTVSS
VL: NFMLTQPHSVSESPGKTVTISCTRSSGSIASNYVQWYQQRPGSAPTTVIYDDNQRPSGVPDRFSGSIDSSSNSASLTISGLKTEDEADYYCQSYDSNNDVFGGGTKVTVL
- IC50, TF-1 cell proliferation (human IL-13 [2]): 3 nM

B3: BAK502G9 IgG4 (antibody, V domains shown)
VH: QVQLVQSGAEVKKPGASVKVSCKASGYTFTNYGLSWVRQAPGQGLEWMGWISANNGDTNYGQEFQGRVTMTTDTSTSTAYMELRSLRSDDTAVYYCARDSSSSWARWFFDLWGRGTLVTVSS
VL: SYVLTQPPSVSVAPGKTARITCGGNIIGSKLVHWYQQKPGQAPVLVIYDDGDRPSGIPERFSGSNSGNTATLTISRVEAGDEADYYCQVWDTGSDPVVFGGGTKLTVL
- IC50, HDLM-2 cell proliferation [3]: 4.6 nM

B4: BAK1183H4 IgG4 (antibody, V domains shown)
VH: QVQLVQSGAEVKKPGASVKVSCKASGYTFTNYGLSWVRQAPGQGLEWMGWINYDGGNTQYGQEFQGRVTMTTDTSTSTAYMELRSLRSDDTAVYYCARDSSSSWARWFFDLWGRGTLVTVSS
VL: SYVLTQPPSVSVAPGKTARITCGGNIIGSKLVHWYQQKPGQAPVLVIYDDGDRPSGIPERFSGSNSGNTATLTISRVEAGDEADYYCQVWDTGSDPVVFGGGTKLTVL
- Kd (human IL-13 [4]): 0.081 nM
- IC50, HDLM-2 cell proliferation [3]: 3.5 nM

B5: BAK1167F2 IgG4 (antibody, V domains shown)
VH: QVQLVQSGAEVKKPGASVKVSCKASGYTFEQTGVSWVRQAPGQGLEWMGWISANNGDTNYGQEFQGRVTMTTDTSTSTAYMELRSLRSDDTAVYYCARDSSSSWARWFFDLWGRGTLVTVSS
VL: SYVLTQPPSVSVAPGKTARITCGGNIIGSKLVHWYQQKPGQAPVLVIYDDGDRPSGIPERFSGSNSGNTATLTISRVEAGDEADYYCQVWDTGSDPVVFGGGTKLTVL
- Kd (human IL-13 [4]): 0.136 nM
- IC50, HDLM-2 cell proliferation [3]: 1.1 nM

B6: BAK209B11 human IgG4 (antibody, V domains shown)
VH: VQLQESGGGGLVQPGGSLRLSCAASGFTFSSYGMSWVRQAPGKGLEWVSSISASGDSTFYADSVKGRFTISRDNNKNMVFLQVNSLRADDTAVYFCAKDWSQWLVGDAFDVWGRGTTVTVSS
VL: DIQLTQSPSTLSASVGDRVTITCRASQSVSLWVAWYQQRPGKAPKLLIYDGSTLQSGVPARFSGSGSGTEFTLTISSLQPDDFATYYCQQYKTFSTFGQGTKVEIKR
- Kd (murine IL-13): 5.1 nM
- koff (murine IL-13): 0.0198 s⁻¹
- kon (murine IL-13): 3.9e+06 M⁻¹ s⁻¹

B7: BAK502G9 scFv (scFv, V domains shown)
VH: QVQLVQSGAEVKKPGASVKVSCKASGYTFTNYGLSWVRQAPGQGLEWMGWISANNGDTNYGQEFQGRVTMTTDTSTSTAYMELRSLRSDDTAVYYCARDSSSSWARWFFDLWGRGTLVTVSS
VL: SYVLTQPPSVSVAPGKTARITCGGNIIGSKLVHWYQQKPGQAPVLVIYDDGDRPSGIPERFSGSNSGNTATLTISRVEAGDEADYYCQVWDTGSDPVVFGGGTKLTVL
- IC50, TF-1 proliferation (Mean TF1) (human IL-13 [5]): 8 nM

B8: BAK1167F2 scFv (scFv, V domains shown)
VH: QVQLVQSGAEVKKPGASVKVSCKASGYTFEQTGVSWVRQAPGQGLEWMGWISANNGDTNYGQEFQGRVTMTTDTSTSTAYMELRSLRSDDTAVYYCARDSSSSWARWFFDLWGRGTLVTVSS
VL: SYVLTQPPSVSVAPGKTARITCGGNIIGSKLVHWYQQKPGQAPVLVIYDDGDRPSGIPERFSGSNSGNTATLTISRVEAGDEADYYCQVWDTGSDPVVFGGGTKLTVL
- IC50, TF-1 proliferation (Mean TF1) (human IL-13 [5]): 0.2 nM

B9: BAK1183H4 scFv (scFv, V domains shown)
VH: QVQLVQSGAEVKKPGASVKVSCKASGYTFTNYGLSWVRQAPGQGLEWMGWINYDGGNTQYGQEFQGRVTMTTDTSTSTAYMELRSLRSDDTAVYYCARDSSSSWARWFFDLWGRGTLVTVSS
VL: SYVLTQPPSVSVAPGKTARITCGGNIIGSKLVHWYQQKPGQAPVLVIYDDGDRPSGIPERFSGSNSGNTATLTISRVEAGDEADYYCQVWDTGSDPVVFGGGTKLTVL
- IC50, TF-1 proliferation (Mean TF1) (human IL-13 [5]): 0.2 nM

Source: patent US7935343B2 (MedImmune Limited, dated 2011)
